This note sets out measurements from patent publication US20170044259A1 (published 2017).

Test [1] concerns the target T1, mouse PD-1 expressed on HEK293 cells (mouse, UniProt Q02242 25-288).
T1 chain: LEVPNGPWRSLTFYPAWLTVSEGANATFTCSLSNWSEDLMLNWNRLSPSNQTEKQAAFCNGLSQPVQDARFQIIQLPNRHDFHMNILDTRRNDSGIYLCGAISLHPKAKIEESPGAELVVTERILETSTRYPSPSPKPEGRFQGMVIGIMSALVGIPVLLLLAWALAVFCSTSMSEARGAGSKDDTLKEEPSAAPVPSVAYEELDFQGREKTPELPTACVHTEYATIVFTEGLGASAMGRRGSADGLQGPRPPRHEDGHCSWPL
Put plainly: flow cytometry blocking; blocking of biotin-mPD-L1.

In test [2] the target is T1, mouse PD-1 expressed on HEK293 cells. Put plainly: flow cytometry cell binding. (Flow cytometry measures light scatter and fluorescence of single cells or particles in a stream.)
Test [3] has the same target. Put plainly: flow cytometry blocking; blocking of biotin-mPD-L2.
The target in test [4] is T2, human PD-1-Fc (R and D systems, Minneapolis, Minn.) (human, UniProt Q15116 25-167). Put plainly: ELISA; lower left panel.
T2 sequence (Q15116 25-167): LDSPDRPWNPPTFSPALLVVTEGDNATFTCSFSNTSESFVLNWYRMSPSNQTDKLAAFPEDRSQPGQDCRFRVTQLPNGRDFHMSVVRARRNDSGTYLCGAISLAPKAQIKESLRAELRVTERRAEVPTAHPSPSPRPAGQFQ
For test [5], the target named is T2, human PD-1-Fc (R and D systems, …). Put plainly: inhibition ELISA; hPDL-1 Fc blockade.
For test [6] the target is unchanged. Put plainly: inhibition ELISA; hPDL-2 Fc blockade. (An ELISA detects its analyte on a solid surface through an enzyme-linked reagent.)
Test [7] has as its target human PD-1-His (R & D systems, Minneapolis, Minn.) (human, UniProt Q15116 25-167). Put plainly: BLI.
Test [8] has as its target T2, human PD-1-Fc (R and D systems, …). Put plainly: ELISA; upper left panel.
The target is the same in test [9]. Put plainly: ELISA; lower right panel.
Test [10] has the same target. Put plainly: inhibition ELISA; hPDL-1 Fc blockade. The source holds these as a separate data set.
For test [11] the target is unchanged. Put plainly: ELISA; upper right panel.

Sequence of human PD-1-His (R & D systems, Minneapolis, Minn.) (Q15116 25-167): as above

B1: J43v2 mIgG2a (antibody, V domains shown)
VH: EVRLLESGGGLVKPEGSLKLSCVASGFTFSDYFMSWVRQAPGKGLEWVAHIYTKSYNYATYYSGSVKGRFTISRDDSRSMVYLQMNNLRTEDTATYYCTRDGSGYPSLDFWGQGTQVTVSS
VL: YELTQPPSASVNVGETVKITCSGDQLPKYFADWFHQRSDQTILQVIYDDNKRPSGIPERISGSSSGTTATLTIRDVRAEDEGDYYCFSGYVDSDSKLYVFGSGTQLTVLG
Regarding B1, the EC50 – broadly, the midpoint of the concentration-response curve – turned out to be 6.06 nM in test [1], 4.31 nM in test [2] and 5.9 nM in [3].

B2: A1.5 (antibody)
heavy: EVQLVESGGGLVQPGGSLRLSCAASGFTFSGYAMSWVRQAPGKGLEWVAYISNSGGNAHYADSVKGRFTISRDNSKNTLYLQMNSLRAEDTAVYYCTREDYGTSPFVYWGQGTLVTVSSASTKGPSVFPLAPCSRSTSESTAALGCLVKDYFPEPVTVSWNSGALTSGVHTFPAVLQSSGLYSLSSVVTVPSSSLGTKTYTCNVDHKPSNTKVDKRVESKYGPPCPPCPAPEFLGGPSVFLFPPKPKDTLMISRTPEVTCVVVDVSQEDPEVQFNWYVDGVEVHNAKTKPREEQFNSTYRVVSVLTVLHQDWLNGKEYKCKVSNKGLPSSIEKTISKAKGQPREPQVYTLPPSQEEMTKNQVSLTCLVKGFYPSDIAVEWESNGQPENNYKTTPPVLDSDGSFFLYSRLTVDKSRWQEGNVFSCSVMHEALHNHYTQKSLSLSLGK
light: DIQLTQSPSSLSASVGDRVTITCRASESVDAYGISFMNWFQQKPGKAPKLLIYAASNQGSGVPSRFSGSGSGTDFTLTISSMQPEDFATYYCQQSKDVPWTFGQGTKLEIKRTVAAPSVFIFPPSDEQLKSGTASVVCLLNNFYPREAKVQWKVDNALQSGNSQESVTEQDSKDSTYSLSSTLTLSKADYEKHKVYACEVTHQGLSSPVTKSFNRGEC
For B2, the Kd (as a rule, the constant that tells how readily two partners part at equilibrium) in [4] stood at 0.16 nM; in test [7] it was 1.48 nM; in test [8], 0.162 nM; in test [9] it was 0.176 nM; in test [11], 0.18 nM. Moreover, the half-maximal inhibitory concentration (IC50) (usually the concentration that gives 50% inhibition) in test [5] was determined as 4.25 nM; in test [6], 2.94 nM; in test [10], 1.4 nM.
